Measurements taken from paper PMC4631838, “Molecular architecture of the yeast Mediator complex” (eLife, 2015).

Experiments:
[1] = biological target: T1, Med5 (Nut1), Mediator Tail module subunit (S. cerevisiae, UniProt P53114 1-1132); assay: cross-linking; BS3 (unlabeled, or 50:50 with 2H12-labeled BS3) on the purified native holoenzyme; 150 mM NaPO4, 150 mM KOAc, pH 7.5, 5% glycerol, 2 mM DTT; procedure A 2.7 mM reagent 120 min on ice; trypsin digest, LC-MS/MS, Protein Prospector; details: both partners purified
T1 construct: Med5 (Nut1), S. cerevisiae, endogenous; source: endogenous, S. cerevisiae CB010 double-tagged strain; within the purified native holoenzyme
T1 sequence (looked up): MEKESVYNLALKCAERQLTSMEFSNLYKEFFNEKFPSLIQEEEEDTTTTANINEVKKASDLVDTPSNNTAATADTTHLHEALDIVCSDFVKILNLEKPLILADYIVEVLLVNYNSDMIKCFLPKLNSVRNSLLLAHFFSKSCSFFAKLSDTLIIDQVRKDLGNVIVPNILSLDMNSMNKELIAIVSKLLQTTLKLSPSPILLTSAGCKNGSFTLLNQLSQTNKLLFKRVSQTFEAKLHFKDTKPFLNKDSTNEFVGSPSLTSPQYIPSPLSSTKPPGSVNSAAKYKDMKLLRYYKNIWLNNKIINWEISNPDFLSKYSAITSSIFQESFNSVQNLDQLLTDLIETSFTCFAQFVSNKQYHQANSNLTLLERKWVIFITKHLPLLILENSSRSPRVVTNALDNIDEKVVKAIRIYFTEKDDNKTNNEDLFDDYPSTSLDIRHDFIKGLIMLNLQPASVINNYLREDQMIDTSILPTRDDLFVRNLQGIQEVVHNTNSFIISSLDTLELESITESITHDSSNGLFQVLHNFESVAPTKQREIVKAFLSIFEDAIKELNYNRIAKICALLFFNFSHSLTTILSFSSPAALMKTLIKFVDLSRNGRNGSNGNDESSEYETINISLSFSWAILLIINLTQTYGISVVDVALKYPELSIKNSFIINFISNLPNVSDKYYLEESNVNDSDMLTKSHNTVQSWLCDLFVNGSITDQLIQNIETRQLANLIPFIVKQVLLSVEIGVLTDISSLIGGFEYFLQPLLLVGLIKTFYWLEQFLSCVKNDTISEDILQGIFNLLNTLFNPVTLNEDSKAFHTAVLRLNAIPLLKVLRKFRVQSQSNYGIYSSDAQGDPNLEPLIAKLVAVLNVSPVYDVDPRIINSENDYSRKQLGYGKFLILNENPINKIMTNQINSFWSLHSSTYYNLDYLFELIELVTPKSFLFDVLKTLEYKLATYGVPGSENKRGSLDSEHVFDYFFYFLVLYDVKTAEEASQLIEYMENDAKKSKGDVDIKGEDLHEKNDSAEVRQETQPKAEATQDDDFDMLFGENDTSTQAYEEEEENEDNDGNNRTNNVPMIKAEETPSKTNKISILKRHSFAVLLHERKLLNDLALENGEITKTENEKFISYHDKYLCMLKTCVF

[2] = biological target: T2, Med15 (Gal11), Mediator Tail module subunit (S. cerevisiae, UniProt P19659 1-1081); assay: as above; details: both partners purified
T2 construct: Med15 (Gal11), S. cerevisiae, endogenous; source: endogenous, S. cerevisiae CB010 double-tagged strain; within the purified native holoenzyme
T2 sequence (looked up): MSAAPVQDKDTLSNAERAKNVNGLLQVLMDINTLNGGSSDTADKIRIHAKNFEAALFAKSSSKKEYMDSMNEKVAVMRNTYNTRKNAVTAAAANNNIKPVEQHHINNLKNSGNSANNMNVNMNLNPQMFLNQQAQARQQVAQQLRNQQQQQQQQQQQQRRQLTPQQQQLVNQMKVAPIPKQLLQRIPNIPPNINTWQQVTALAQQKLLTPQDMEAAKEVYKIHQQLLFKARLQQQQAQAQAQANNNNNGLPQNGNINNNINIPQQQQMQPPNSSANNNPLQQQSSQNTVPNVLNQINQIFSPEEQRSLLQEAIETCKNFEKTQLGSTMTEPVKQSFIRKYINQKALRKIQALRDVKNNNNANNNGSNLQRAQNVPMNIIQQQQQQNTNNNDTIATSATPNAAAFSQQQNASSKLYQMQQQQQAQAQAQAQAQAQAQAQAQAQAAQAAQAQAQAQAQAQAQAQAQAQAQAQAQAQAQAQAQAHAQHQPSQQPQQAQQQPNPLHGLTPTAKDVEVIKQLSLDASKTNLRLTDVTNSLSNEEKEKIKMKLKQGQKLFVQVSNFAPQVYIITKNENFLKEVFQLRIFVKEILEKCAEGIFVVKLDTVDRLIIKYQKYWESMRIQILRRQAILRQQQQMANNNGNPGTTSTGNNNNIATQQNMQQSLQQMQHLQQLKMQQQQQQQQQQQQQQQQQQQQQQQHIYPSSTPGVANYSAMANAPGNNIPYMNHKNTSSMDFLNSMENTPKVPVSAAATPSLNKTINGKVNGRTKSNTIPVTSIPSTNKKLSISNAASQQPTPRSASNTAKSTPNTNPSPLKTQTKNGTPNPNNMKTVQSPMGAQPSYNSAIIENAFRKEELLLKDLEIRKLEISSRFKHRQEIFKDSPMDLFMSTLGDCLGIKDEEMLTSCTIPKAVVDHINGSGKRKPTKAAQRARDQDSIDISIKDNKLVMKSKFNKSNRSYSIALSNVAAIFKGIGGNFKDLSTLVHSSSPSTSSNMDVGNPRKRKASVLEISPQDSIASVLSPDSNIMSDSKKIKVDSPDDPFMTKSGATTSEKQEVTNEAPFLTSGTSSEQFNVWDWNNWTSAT

- binding result [1]: binds
- binding result [2]: binds
B1: Med16 (Sin4), Mediator Tail module subunit (natural protein, S. cerevisiae, UniProt P32259 1-974, looked up)
chain: MMLGEHLMSWSKTGIIAYSDSQSSNANICLTFLESINGINWRFHTPQKYVLHPQLHEVQYQESSSTLSTHSTTTSVNGSTTAGVGSTPNFGGNSNKSPPQFFYNISSIHWNNWFSLPGDMLAVCDELGNMTMLITGQRPDRATTYEKLTMVFQDNVYKIYNHVMPLKPVDKLKPMNIERKQTRKEYNTSILEFRWLTSSKSVIVSQFCAFDSSSNTYRSRAQQVPPYGVYHPPFIKYACLAIRKNGQIDFWYQFSNSKDHKKITLQLLDTSNQRFKDLQWLEFARITPMNDDQCMLITTYSKLSKNISFYKLHVNWNLNATKPNVLNDPSLKIQFILSTTLDPTDDEGHVLKLENLHVVSKSSIEKDPSPEILVLYNVCDTSKSLVKRYRLAPTQLSAEYLVILKPDLNIDRNNSTNQIFQSRRYNLRRHSDIVLDKKVTLITSEMFDAFVSFYFEDGTIESYNQNDWKLETERLISQSQLGKFKNIIASPLSAGFNYGKLPLPPSVEWMKVSPSMCGVIVKQYNKKWPQFYAAVQKNYADPEKDSINATALAFGYVKSLHKQISAEDLTIAAKTHILRISFLDRKRAKEFITTLLKSLYSFFNISPDAPKEIMDKIITSRPLQKIMLLQLELGSCFSQENIEEMARVILYLKNVLFAFNGVARNFHFAIEQISNNSNQQQNPKLFQTIFSKQDLIHSLIPVAKWFVKFITYLTQEILILINDPTNKEYTLVHGIFGAKMSRTLILSILNEIKKVTQIVAKFPETSYPILNESSTFLKLVLSESPVDFEKFETFLVDVNNKFIALCEQQPSQEREFSLLVKAEIPPEYAKVGDFLLQYANNAVISHANAAAVYFADTSGLKISNSEFFNPEIFHLLQPLEEGLIIDTDKLPIKNRTSKSFSKLLYDDVTCDKLSVSEISDGKLKRCSRCGSVTRAGNIISSDKTIVPTSIQTKRWPTMYTRLCICSGMLFEMDG
notes: Med16 (Sin4), S. cerevisiae, endogenous; source: endogenous, S. cerevisiae CB010 double-tagged strain; within the purified native holoenzyme
